Measured values reported in patent publication US7521230B2, “Nucleic acid encoding a Brain Derived Tau Kinase polypeptide and methods of use thereof” (Board of Regents of the University of Nebraska, priority 2002, dated 2009).

Tests used:
GSK-3beta = GSK-3beta (Homo sapiens, UniProt P49841); details: cited from earlier work
CDK-5 = CDK-5 (Homo sapiens, UniProt Q00535); details: cited from earlier work
[1] = system: BDTK promoter (CpG1.2-luciferase) in HEK 293 cells; experiment: CpG1.2-luciferase BDTK promoter reporter assay in HEK293 cells; type: cell-based, human; details: A-beta 1-42 0-30 μg/ml, 24 hours
Protocol: A luciferase assay was used to determine promoter activity. To conduct this assay, 1.2 kb and 0.6 kb promoter sequence were inserted into pGL3-control vector (Promega, named as CpG1.2 and CpG0.6, respectively). The luciferase constructs were co-transfected with reference reporter gene (thymidine kinase promoter TK-RL plasmid, Promega) into PC12 and HEK293 cells using lipofection method (GenePorter, Gene Therapy Systems, Inc.). At 48 hours after DNA transfection, each luciferase activity was measured using Dua1-luciferase kit (Promega). […] CpG1.2-luciferase vector was tested for its promoter activity by increasing dose of extracellular beta-amyloid peptide (A-beta) 1-42 (0-30 μg/ml) for 24 hours. CpG1.2 luciferase activities (PC12-CpG or HEK-CpG) are 8- to 10-fold higher than control activities (PC12-control or HEK293-control) without beta-amyloid stimulation.

BDTK [2] = biological target: T1, BDTK (Homo sapiens, UniProt Q5TCY1); experiment: BDTK-mediated tau phosphorylation in vitro; type: biochemical
T1 construct: made in house
T1 sequence (Q5TCY1 38-319): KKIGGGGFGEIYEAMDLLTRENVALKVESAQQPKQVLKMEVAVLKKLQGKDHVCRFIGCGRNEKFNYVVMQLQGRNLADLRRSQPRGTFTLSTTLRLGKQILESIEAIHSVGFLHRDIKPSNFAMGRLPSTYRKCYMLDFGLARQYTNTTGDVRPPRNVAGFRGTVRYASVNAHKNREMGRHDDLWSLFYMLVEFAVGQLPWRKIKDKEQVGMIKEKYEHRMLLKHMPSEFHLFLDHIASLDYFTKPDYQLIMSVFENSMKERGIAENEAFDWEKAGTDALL

BDTK [3] = biological target: T1, BDTK; experiment: BDTK phosphorylation (autophosphorylation) in vitro; type: biochemical
Protocol: Purified recombinant human tau (Calbiochem) was phosphorylated by purified BDTK(38-319) and BDTK(52-319) in vitro. Briefly, 1 μg of tau protein and 1 μg of BDTK mutants were incubated in buffer A (50 mM Tris-Cl, pH 7.5, 5mM Mg acetate, 1 mM EDTA, 1 mM DTT, 0.1 mM ATP, 2 μCi [γ-^32P]ATP) or buffer B (100 mM Mes-Na, pH 6.5, 5 mM Mg acetate, 1 mM EGTA, 1 mM DTT, 0.2 mM ATP, and 2 μCi[γ-^32P]ATP). The reaction was stopped at 30, 60, 120, and 180 minutes by addition of Laemmli sampling buffer. Samples were then subjected to SDS-PAGE and autoradiography.
An assay was conducted to identify promoters and inhibitors of BDTK activity. BDTK peptides may be used to inhibit BDTK activity. Two synthetic peptides (N21: […] (SEQ ID NO:21) and AA21: […]) (SEQ ID NO:22) are synthesized to test if N21 and A21, where conserved two glycine residues are substituted with alanine, has inhibitory effect of BDTK kinase activity in vitro. Increasing amounts of peptides (0-1 mM) were tested for BDTK and tau phosphorylation, in vitro. […] AA21 mutated peptide increased both BDTK (AA21-BDTK, from 30 to 300 μM) and tau phosphorylation (AA21-tau, from 30 μM to […]) in dose response manner.

CDK-5, sequence (Q00535 whole entry, species assumed): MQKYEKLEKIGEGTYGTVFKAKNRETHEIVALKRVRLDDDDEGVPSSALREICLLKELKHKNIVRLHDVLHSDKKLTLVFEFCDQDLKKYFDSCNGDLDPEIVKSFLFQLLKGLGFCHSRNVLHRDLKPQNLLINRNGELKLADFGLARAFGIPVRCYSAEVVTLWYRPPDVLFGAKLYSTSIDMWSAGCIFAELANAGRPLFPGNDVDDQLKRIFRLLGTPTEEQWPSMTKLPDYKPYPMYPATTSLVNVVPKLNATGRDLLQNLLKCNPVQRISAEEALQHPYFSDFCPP
CDK-5, sequence (Q15078 whole entry partner, species assumed): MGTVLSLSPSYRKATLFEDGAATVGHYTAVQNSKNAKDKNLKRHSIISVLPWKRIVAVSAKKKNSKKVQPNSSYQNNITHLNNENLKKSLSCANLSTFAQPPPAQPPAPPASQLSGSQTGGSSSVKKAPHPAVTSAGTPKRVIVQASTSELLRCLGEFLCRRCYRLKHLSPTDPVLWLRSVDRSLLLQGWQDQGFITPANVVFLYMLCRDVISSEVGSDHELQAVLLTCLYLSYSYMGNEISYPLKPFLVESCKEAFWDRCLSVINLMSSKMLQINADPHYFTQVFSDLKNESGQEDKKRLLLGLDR
GSK-3beta, sequence (P49841 whole entry, species assumed): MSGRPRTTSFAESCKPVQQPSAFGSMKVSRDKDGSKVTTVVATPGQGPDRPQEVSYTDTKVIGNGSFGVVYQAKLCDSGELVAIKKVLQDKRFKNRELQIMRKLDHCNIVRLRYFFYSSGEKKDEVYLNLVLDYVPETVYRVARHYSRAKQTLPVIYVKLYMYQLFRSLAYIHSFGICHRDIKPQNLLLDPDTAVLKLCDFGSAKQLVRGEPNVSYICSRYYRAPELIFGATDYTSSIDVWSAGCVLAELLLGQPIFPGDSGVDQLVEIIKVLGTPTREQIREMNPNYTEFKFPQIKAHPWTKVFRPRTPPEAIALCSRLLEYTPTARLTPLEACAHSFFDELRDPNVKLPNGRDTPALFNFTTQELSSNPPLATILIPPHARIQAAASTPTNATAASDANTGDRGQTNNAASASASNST

CC(C)[C@H](CO)Nc1nc(Nc2cccc(Cl)c2)c2ncn(C(C)C)c2n1 [puralanol A]
IC50 (GSK-3beta): 13 µM
IC50 (CDK-5): 0.075 µM

Beta-amyloid: extracellular beta-amyloid peptide (A-beta) 1-42
effect on CpG1.2-luciferase activity [1]: weakly stimulated

KDRWKVVKKIGGGGFGEIYEA [N21]
effect on tau phosphorylation (N21-tau) (BDTK [2]; peptide from 300 μM to 1 μM): partially inhibited
inhibition of BDTK phosphorylation (BDTK [3]; peptide 100 μM-1 mM): up to 70%

KDRWKVWKKIAGAGFGEIYEA [AA21]
effect on tau phosphorylation (AA21-tau) (BDTK [2]; peptide from 30 μM to 1 μM, dose response manner): increased
effect on BDTK phosphorylation (AA21-BDTK) (BDTK [3]; peptide from 30 to 300 μM, dose response manner): increased
